B1: WNanoKAZ-V90I: single amino acid-substituted WNanoKAZ mutant, valine 90 back to isoleucine; SEQ ID NO: 8 (protein)
chain: FTLADFVGDWQQTAGYNQDQVLEQGGLSSLFQALGVSVTPIQKVVLSGENGLKADIHVIIPYEGLSGFQMGLIEMIFKVVYPVDDHHFKIILHYGTLVIDGVTPNMIDYFGRPYEGIAVFDGKKITVTGTLWNGNKIIDERLINPDGSLLFRVTINGVTGWRLCERILA
B2: WNanoKAZ-E115P: WNanoKAZ with substitution of proline for glutamic acid at position 115; SEQ ID NO: 10 (protein)
chain: FTLADFVGDWQQTAGYNQDQVLEQGGLSSLFQALGVSVTPIQKVVLSGENGLKADIHVIIPYEGLSGFQMGLIEMIFKVVYPVDDHHFKVILHYGTLVIDGVTPNMIDYFGRPYPGIAVFDGKKITVTGTLWNGNKIIDERLINPDGSLLFRVTINGVTGWRLCERILA
B3: WNanoKAZ-I138Y: single amino acid-substituted WNanoKAZ mutant I138Y; SEQ ID NO: 14 (protein)
chain: FTLADFVGDWQQTAGYNQDQVLEQGGLSSLFQALGVSVTPIQKVVLSGENGLKADIHVIIPYEGLSGFQMGLIEMIFKVVYPVDDHHFKVILHYGTLVIDGVTPNMIDYFGRPYEGIAVFDGKKITVTGTLWNGNKIYDERLINPDGSLLFRVTINGVTGWRLCERILA
B4: WNanoKAZ-K124Q: single amino acid-substituted WNanoKAZ mutant K124Q; SEQ ID NO: 12 (protein)
chain: FTLADFVGDWQQTAGYNQDQVLEQGGLSSLFQALGVSVTPIQKVVLSGENGLKADIHVIIPYEGLSGFQMGLIEMIFKVVYPVDDHHFKVILHYGTLVIDGVTPNMIDYFGRPYEGIAVFDGKQITVTGTLWNGNKIIDERLINPDGSLLFRVTINGVTGWRLCERILA

Columns and labels:
CHO-K1 cells = test: Luminescence activity of WNanoKAZ mutants expressed by secretory expression vectors in animal culture cells (Example 13); type: cell-based, Chinese hamster; details: pcDNA3-GLsp- secretory vector, coelenterazine substrate
Method: Chinese hamster ovary cell line CHO-K1 was cultured in Ham's F-12 medium (manufactured by Wako Pure Chemical Industries, Ltd.) supplemented with 10% (v/v) fetal bovine serum (manufactured by Biowest Inc.). The CHO-K1 cells were seeded in a 6-well plate in 1×10^5 cells/well/2 mL medium (n=2) and cultured in an incubator at 37° C. in 5% (v/v) CO2. After 24 hours, the purified recombinant plasmid was transfected to CHO-K1 cells using a FuGene HD transfection kit (manufactured by Promega Corp.) and the cells were used for subsequent experiment. Specifically, 1 μg of the recombinant plasmid, 0.1 μg of the internal standard vector pGL4.13 [Luc2/sv40] and 3 μL of FuGene HD were added to 100 μL of the medium and allowed to stand at room temperature for 15 minutes. Subsequently, 100 μL of the DNA-FuGene complex solution was added to the cells in the 6-well plate. After incubation for 46 hours, the culture medium was collected. On the other hand, the KAZ mutant expressed in the cells was washed 3 times with 3 mL of 1×PBS, then suspended in 1 mL of 1×PBS and disrupted by sonication on ice. The resultant cell extract of WNanoKAZ was used as the enzyme solution.
After adding 5 μL of the culture medium and cell extract obtained in EXAMPLE 5 to 100 μL of 30 mM Tris-HCl (pH 7.6)-10 mM EDTA (Wako Pure Chemical Industries, Ltd.) containing 1 μg of coelenterazine (manufactured by JNC Corp.), a luminescence reaction was started. Luminescence activity was measured for 60 seconds using a luminometer (manufactured by Atto Inc.: AB2200). The maximum intensity of luminescence (Imax) was given as a percentage (%).
The recombinant plasmid obtained in EXAMPLE 12 or 4 was purified in a manner similar to EXAMPLE 5 and dissolved in sterile water. The firefly luciferase vector (pGL4.13 [Luc2/sv40]: manufactured by Promega Corp.) was similarly prepared and used as an internal standard.
Culture medium containing two amino acid-substituted KAZ mutants and three amino acid-substituted KAZ mutants and cell extracts of the KAZ mutants as the enzyme solutions were prepared by the same procedure as in EXAMPLE 9.
The resultant culture medium and cell extracts were used to measure luminescence activity as in EXAMPLE 6.

[1] = Substrate specificity of WNanoKAZ mutants, crude enzyme solution (Example 11); type: biochemical; details: for Relative luminescence activity, 6h-CTZ, Imax / Relative luminescence activity, 6h-CTZ, Int.: substrate 6h-CTZ; for Relative luminescence activity, 6h-f-CTZ, Imax / Relative luminescence activity, 6h-f-CTZ, Int.: substrate 6h-f-CTZ; for Relative luminescence activity, CTZ, Imax / Relative luminescence activity, CTZ, Int.: substrate CTZ
Method: (§1) DTT was added to the crude enzyme solution obtained in EXAMPLE 9 at a final concentration of 1 mM, and then allowed to stand in an ice-water bath over 8 hours or more. After 1 μL of the crude enzyme solution was added to 100 μL of 30 mM Tris-HCl (pH 7.6)-10 mM EDTA (Wako Pure Chemical Industries, Ltd.) containing 1 μg of coelenterazine (manufactured by JNC Corp.), a luminescence reaction was started. Luminescence activity was measured for 60 seconds using a luminometer (manufactured by Atto Inc.: AB2200). The maximum intensity of luminescence (Imax) was given as a relative luminescence activity (rlu).
Each of the coelenterazine analogues used for substrate specificity studies was synthesized by the methods described in publications. Specifically, bis-coelenterazine was synthesized by the method described in Nakamura et al. (1997) Tetrahedron Lett. 38: 6405-6406, furimazine by the method described in Hall et al. (2012) ACS Chem. Biol. […], and, 6h-coelenterazine, f-coelenterazine and 6h-f-coelenterazine by the method described in Inouye et al (2013) Biochem. Biophys. Res. Commun. 437: 23-28. Luminescence activity was measured by the same method as in EXAMPLE 10, using the crude enzyme solution obtained in EXAMPLE 10, in which coelenterazine or its analogue was used as the luminescence substrate.

[2] = Luminescence activity of ZZ-fused WNanoKAZ mutants in crude enzyme solution (Example 10); type: biochemical; details: coelenterazine substrate; for Relative luminescence activity (Imax): ZZ-fused, pCold-ZZ-P- vector in E. coli, KAZ = 1.0; for fold higher activity than native KAZ / fold higher activity than the relative activity 7.4 of dnKAZ: Imax
Method: In order to express ZZ-fused KAZ mutants in E. coli, the recombinant plasmid produced in EXAMPLE 8 and pCold-ZZ-P-WNanoKAZ produced in EXAMPLE 1 were used. The crude enzyme solution was prepared in a manner similar to EXAMPLE 2, using the E. coli BL21 strain (Novagen, Madison, Wis.) as a host cell. Then, 5 μL of the crude enzyme solution obtained was subjected to SDS-PAGE analysis to confirm the protein expression in all mutants. In FIG. 1, M and 1 to 8 represent as follows. M: molecular weight size markers; 1: ZZ-P-KAZ; 2: ZZ-P-WNanoKAZ; 3: ZZ-P-WNanoKAZ-V90I; 4: ZZ-P-WNanoKAZ-E115P; 5: ZZ-P-WNanoKAZ-K124Q; 6: ZZ-P-WNanoKAZ-I138Y; 7: ZZ-P-WNanoKAZ-R166N; 8: ZZ-P-dnKAZ. It was confirmed from FIG. 1 that all mutants were expressed.
as §1

Molecule | Relative luminescence activity (%, Imax) Cell extracts (CHO-K1 cells) [%] | Relative luminescence activity (%, Imax) Culture medium (CHO-K1 cells) [%] | Relative luminescence activity, Furimazine, Imax [1] | Relative luminescence activity, bis-CTZ, Imax [1] | Relative luminescence activity, f-CTZ, Imax [1] | Relative luminescence activity, h-CTZ, Imax [1] | Relative luminescence activity, Furimazine, Int. [1] | Relative luminescence activity, bis-CTZ, Int. [1] | Relative luminescence activity, f-CTZ, Int. [1] | Relative luminescence activity, h-CTZ, Int. [1] | fold higher activity than the other coelenterazine analogues when coelenterazine was used as the substrate [1] [fold] | Relative luminescence activity, 6h-CTZ, Imax [1] | Relative luminescence activity, 6h-CTZ, Int. [1] | Relative luminescence activity, 6h-f-CTZ, Imax [1] | Relative luminescence activity, 6h-f-CTZ, Int. [1] | Relative luminescence activity, CTZ, Imax [1] | Relative luminescence activity, CTZ, Int. [1] | Relative luminescence activity (Imax) [2] | fold higher activity than native KAZ [2] [fold] | fold higher activity than the relative activity 7.4 of dnKAZ [2] [fold] | other results
B1 | 15 | 0.03 | 17 | 23 | 31 | 41 | 15 | 21 | 22 | 22 | 4.6 | 5.1 | 5.6 | 23 | 23 | 34 | 35 | 34 | 34 | 4.6 | –
B2 | 12 | <0.01 | 13 | 18 | 22 | 27 | 11 | 19 | 14 | 17 | 4.2 | 5.9 | 6.1 | 14 | 11 | 31 | 26 | 31 | 31 | 4.2 | –
B3 | 10 | <0.01 | 11 | 18 | 29 | 35 | 8.9 | 17 | 18 | 22 | 1.1 | 1.7 | 2.8 | 17 | 10 | 8.5 | 8.9 | 8.5 | 8.5 | 1.1 | activity compared with dnKAZ (in words) [2]: decreased to the same level as that of dnKAZ
B4 | 21 | 0.03 | 18 | 36 | 64 | 70 | 11 | 33 | 40 | 41 | 4.6 | 6.2 | 6.1 | 40 | 35 | 34 | 32 | 34 | 34 | 4.6 | –
